Measurements published in patent US6723841.

Columns and labels:
[1] = target: T1, human CRF2α receptor (human) (UniProt Q13324); assay: cell-based or functional assay
T1 sequence: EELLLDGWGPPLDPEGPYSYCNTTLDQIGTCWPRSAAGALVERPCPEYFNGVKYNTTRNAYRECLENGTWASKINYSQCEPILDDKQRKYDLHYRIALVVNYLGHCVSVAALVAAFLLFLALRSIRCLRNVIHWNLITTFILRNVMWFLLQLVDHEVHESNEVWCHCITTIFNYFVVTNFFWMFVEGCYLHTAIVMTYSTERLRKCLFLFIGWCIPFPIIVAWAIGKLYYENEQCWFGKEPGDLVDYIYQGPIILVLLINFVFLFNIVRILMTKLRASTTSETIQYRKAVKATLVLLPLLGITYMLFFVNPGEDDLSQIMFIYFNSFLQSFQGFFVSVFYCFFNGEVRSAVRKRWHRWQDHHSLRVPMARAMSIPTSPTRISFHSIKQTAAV

[2] = target: human CRF1 receptor (human) (UniProt P34998); assay: cell-based or functional assay
Chain of human CRF1 receptor (human) (P34998 24-415): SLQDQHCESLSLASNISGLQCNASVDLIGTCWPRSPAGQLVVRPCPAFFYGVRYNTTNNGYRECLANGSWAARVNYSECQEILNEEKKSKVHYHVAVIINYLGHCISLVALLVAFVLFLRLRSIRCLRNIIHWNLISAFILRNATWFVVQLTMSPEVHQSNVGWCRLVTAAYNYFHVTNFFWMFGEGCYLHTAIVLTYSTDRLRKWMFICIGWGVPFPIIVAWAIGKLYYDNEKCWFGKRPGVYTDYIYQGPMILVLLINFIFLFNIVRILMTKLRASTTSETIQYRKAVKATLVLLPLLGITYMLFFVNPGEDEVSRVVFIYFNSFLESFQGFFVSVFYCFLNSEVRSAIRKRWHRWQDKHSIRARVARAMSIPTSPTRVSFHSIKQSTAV

Row | EC50 of adenylate cyclase stimulation (cAMP) [1] [nM] | EC50 of adenylate cyclase stimulation (cAMP) [2] [nM] | Substance
1 | 2 | 4 | Urotensin I (peptide)
2 | > 1000 | 800 | Gly41 r/hCRF-OH (from UniProt P06850 154-194) (peptide)
3 | > 1000 | > 1000 | α-helical oCRF(9-41) (peptide)
